Target: 3xFLAG-tagged rat KCNQ2 (rat) (UniProt O88943)
Experiment: co-IP; KCNQ2-CaM complex immunoprecipitated in calcium (–) condition, the resin then exposed to 500 µM Ca2+; time course of CaM left on KCNQ2

Sequence of UniProt O88943 (O88943 whole entry): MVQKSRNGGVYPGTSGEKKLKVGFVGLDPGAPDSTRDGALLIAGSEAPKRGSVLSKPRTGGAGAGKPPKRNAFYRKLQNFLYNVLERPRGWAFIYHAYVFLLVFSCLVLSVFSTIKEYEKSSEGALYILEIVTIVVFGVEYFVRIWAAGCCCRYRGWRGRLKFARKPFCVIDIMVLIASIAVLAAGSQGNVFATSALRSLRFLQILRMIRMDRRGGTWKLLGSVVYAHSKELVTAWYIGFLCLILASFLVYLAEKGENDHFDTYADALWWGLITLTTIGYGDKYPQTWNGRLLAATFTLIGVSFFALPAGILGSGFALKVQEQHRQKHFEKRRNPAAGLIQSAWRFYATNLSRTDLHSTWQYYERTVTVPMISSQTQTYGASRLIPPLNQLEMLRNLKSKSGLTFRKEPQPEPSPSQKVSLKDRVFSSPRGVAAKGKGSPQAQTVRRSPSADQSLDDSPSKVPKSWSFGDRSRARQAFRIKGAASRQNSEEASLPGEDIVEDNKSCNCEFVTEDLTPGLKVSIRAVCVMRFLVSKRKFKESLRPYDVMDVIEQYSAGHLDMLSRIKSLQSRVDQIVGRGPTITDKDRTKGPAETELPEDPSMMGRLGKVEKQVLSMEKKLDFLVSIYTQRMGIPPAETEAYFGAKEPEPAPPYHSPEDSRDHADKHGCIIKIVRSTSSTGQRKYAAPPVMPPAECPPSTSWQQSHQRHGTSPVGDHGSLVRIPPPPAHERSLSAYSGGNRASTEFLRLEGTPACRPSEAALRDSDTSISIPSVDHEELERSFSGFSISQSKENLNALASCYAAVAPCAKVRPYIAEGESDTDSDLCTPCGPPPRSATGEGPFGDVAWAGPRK

V5-epitope tagged calmodulin (from UniProt P0DP23 1-149) (natural protein)
time constant of calcium-induced dissociation: 20.7 s

Source: publication PMC3857245
